Publication PMC12014896 (2025)
Numbering of substitutions follows the chain as printed.

B1: COVIC-127 (antibody)
chain 1: not shown
chain 2: QVQLQESGGGLVQAGGSLRLSCAASGRTFSEYAMGWFRQAPGKEREFVATISWSGGSTYYTDSVKGRFTISRDNAKNTVYLQMNSLKPDDTAVYYCAAAGLGTVVSEWDYDYDYWGQGTQVTVSSGGSGGSQVQLQESGGGLVQAGGSLRLSCAASGRTFSEYAMGWFRQAPGKEREFVATISWSGGSTYYTDSVKGRFTISRDNAKNTVYLQMNSLKPDDTAVYYCAAAGLGTVVSEWDYDYDYWGQGTQVTVSSGGGGSGGGGSKRTVAAPSVFIFPPSDEQLKSGTASVVCLLNNFYPREAKVQWKVDNALQSGNSQESVTEQDSKDSTYSLSSTLTLSKADYEKHKVYACEVTHQGLSSPVTKSFNRGEC
B2: COVIC-126 (antibody)
chain 1: QVQLQESGGGLVQAGGSLRLSCAASGRTFSEYAMGWFRQAPGKEREFVATISWSGGSTYYTDSVKGRFTISRDNAKNTVYLQMNSLKPDDTAVYYCAAAGLGTVVSEWDYDYDYWGQGTQVTVSSGGSGGSQVQLQESGGGLVQAGGSLRLSCAASGRTFSEYAMGWFRQAPGKEREFVATISWSGGSTYYTDSVKGRFTISRDNAKNTVYLQMNSLKPDDTAVYYCAAAGLGTVVSEWDYDYDYWGQGTQVTVSSGGGGSGGGGSASTKGPSVFPLAPSSKSTSGGTAALGCLVKDYFPEPVTVSWNSGALTSGVHTFPAVLQSSGLYSLSSVVTVPSSSLGTQTYICNVNHKPSNTKVDKKVEPKSCDKTHTKKKPLDGEYFTLQIRGRERFEMFRELNEALELKDAQAGKEPGGGGGSGGGGSQVQLQESGGGLVQAGGSLRLSCAASGRTFSEYAMGWFRQAPGKEREFVATISWSGGSTYYTDSVKGRFTISRDNAKNTVYLQMNSLKPDDTAVYYCAAAGLGTVVSEWDYDYDYWGQGTQVTVSSGGSGGSQVQLQESGGGLVQAGGSLRLSCAASGRTFSEYAMGWFRQAPGKEREFVATISWSGGSTYYTDSVKGRFTISRDNAKNTVYLQMNSLKPDDTAVYYCAAAGLGTVVSEWDYDYDYWGQGTQVTVSS
chain 2: B1 chain 2
B3: COVIC-21 (antibody, V domains shown)
VH: EVQLLESGGGLVQPGGSLRLSCAASGFTFSDFAMAWVRQAPGKGLEWVSAISGSGDITYYADSVKGRFTISRDNSKNTLYLQMNSLRAEDTAVYYCAREADGLHSPWHFDLWGQGTLVTVSS
B4: COVIC-30 (antibody, V domains shown)
VH: EVQLVESGGGLVQPGGSLRLSCAASGFTVSSNYMSWVRQAPGKGLEWVSVIYSGGSTYYADSVKGRFTISRDNSKNTLYLQMNSLRAEDTAVYYCARVEWAAAGTFYWGQGTLVTVSS
VL: QSALTQEPSLTVSPGGTVTLTCGSSTGAVTSGHYPYWFQQKPGQAPRTLIYDTSNKRSWTPARFSGSLLGGKAALTLSGAQPEDEAEYYCLLSYSGVWVFGGGTKLTVL
B5: COVIC-291 (antibody, V domains shown)
VH: EVQLVESGGGLVQPGRSLRLSCAASGFTFDDYAMHWVRQAPGKGLEWVSGISWNSDSIDYADSVKGRFTISRDNAKNSLYLQMNSLRAEDTALYYCAKDRGYEILTPASFDYWGQGTLVTVSS
VL: DIQMTQSPSSLSASVGDRVTITCRASQSISSYLNWFQHKPGKAPKLLIYGASSLQSGVPSRFSGSGSGTDFTLTISSLQPEDFATYYCQQSYSTPPYTFGQGTKLEIK
B6: COVIC-57 (antibody)
chain 1: QVQLQESGGGLVQAGGSLRLSCAASGRTFSEYAMGWFRQAPGKEREFVATISWSGGSTYYTDSVKGRFTISRDNAKNTVYLQMNSLKPDDTAVYYCAAAGLGTVVSEWDYDYDYWGQGTQVTVSSGGGGSGGGGSASTKGPSVFPLAPSSKSTSGGTAALGCLVKDYFPEPVTVSWNSGALTSGVHTFPAVLQSSGLYSLSSVVTVPSSSLGTQTYICNVNHKPSNTKVDKKVEPKSCDKTHTKKKPLDGEYFTLQIRGRERFEMFRELNEALELKDAQAGKEPG
chain 2: QVQLQESGGGLVQAGGSLRLSCAASGRTFSEYAMGWFRQAPGKEREFVATISWSGGSTYYTDSVKGRFTISRDNAKNTVYLQMNSLKPDDTAVYYCAAAGLGTVVSEWDYDYDYWGQGTQVTVSSGGGGSGGGGSKRTVAAPSVFIFPPSDEQLKSGTASVVCLLNNFYPREAKVQWKVDNALQSGNSQESVTEQDSKDSTYSLSSTLTLSKADYEKHKVYACEVTHQGLSSPVTKSFNRGEC
B7: COVIC-125 (antibody)
chain 1: B2 chain 1
chain 2: B6 chain 2
B8: COVIC-58 (antibody)
chain 1: QVQLQESGGGLVQAGGSLRLSCAASGRTFSEYAMGWFRQAPGKEREFVATISWSGGSTYYTDSVKGRFTISRDNAKNTVYLQMNSLKPDDTAVYYCAAAGLGTVVSEWDYDYDYWGQGTQVTVSSGGGGSGGGGSASTKGPSVFPLAPSSKSTSGGTAALGCLVKDYFPEPVTVSWNSGALTSGVHTFPAVLQSSGLYSLSSVVTVPSSSLGTQTYICNVNHKPSNTKVDKKVEPKSCDKTHTAPELLGGPSVFLFPPKPKDTLMISRTPEVTCVVVDVSHEDPEVKFNWYVDGVEVHNAKTKPREEQYNSTYRVVSVLTVLHQDWLNGKEYKCKVSNKALPAPIEKTISKAKGQPREPQVYTLPPSRDELTKNQVSLTCLVKGFYPSDIAVEWESNGQPENNYKTTPPVLDSDGSFFLYSKLTVDKSRWQQGNVFSCSVMHEALHNHYTQKSLSLSPGKKKKPLDGEYFTLQIRGRERFEMFRELNEALELKDAQAGKEPG
chain 2: B6 chain 2
B9: COVIC-66 (antibody)
chain: QVQLQESGGGLVQAGGSLRLSCAASGRTFSEYAMGWFRQAPGKEREFVATISWSGGSTYYTDSVKGRFTISRDNAKNTVYLQMNSLKPDDTAVYYCAAAGLGTVVSEWDYDYDYWGQGTQVTVSSGGSGGSQVQLQESGGGLVQAGGSLRLSCVASGSIFSINAMDWYRQAPGKQRELVAGITSGGSTNYGDFVKGRFTISRDNAKNTVYLQMDSLKPEDTAVYYCAAEVGGWGPPRPDYWGHGTQVTVSSGGGGSGGGGSEPKSCDKTHTCPPCPAPELLGGKKKPLDGEYFTLQIRGRERFEMFRELNEALELKDAQAGKEPG
B10: COVIC-266 (antibody, V domains shown)
VH: EVQLVESGGGLVQPGGSLRLSCKASGISVAPHAVTWVRQAPGKGLEWIGVIASNADTYYASWAKGRFTISRDNSKNTLYLQMNSLRAEDTAVYYCARHPGSAGYGYTYYYAMDPWGQGTLVTVSS
VL: DIQMTQSPSSLSASVGDRVTITCKASEDIRYGLNWYQQKPGKAPKLLIYGANTLEAGVPSRFSGSGSGTDFTLTISSLQPEDFATYYCQQGYSTPLTFGGGTKVEIK
B11: COVIC-386 (antibody, V domains shown)
VH: B10 VH with I27Y, V29F, A30R, P31H, H32Q, V34M
VL: DIQMTQSPSSLSASVGDRVTITCQASERVFYGIDWYQQKPGKAPKLLIYGASALWHGVPSRFSGSGSGTDYTLTISSLQPEDFATYYCQQGYMVPIGFGGGTKVEIK
B12: COVIC-368 (antibody, V domains shown)
VH: QVQLVQSGAEVKKPGASVKVSCKAYGYTFTSHYMHWVRQAPGQGLEWMGIIDSSGGGASYPQKFQGRVTLTRDTSSSTVYMELSSLRSEDTAVYYCAKAHSTNWYGWFDPWGQGTLVTVSS
VL: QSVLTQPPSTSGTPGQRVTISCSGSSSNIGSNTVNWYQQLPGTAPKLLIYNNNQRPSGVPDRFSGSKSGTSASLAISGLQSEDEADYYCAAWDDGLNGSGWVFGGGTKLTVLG
B13: COVIC-307 (antibody, V domains shown)
VH: QVQLVQSGAEVKKPGSSVKVSCKASGGTFGISWVRQAPGQGLEWMGRIIPILGTANHAQKFQGRVTITADKSTGTVYMELSSLRSEDTAVYYCARDGDSGSYYETLGFDYWGQGTLVTVSS
VL: QSALTQPPSASGSPGQSVTISCTGTSSDVGGYNYVSWYQQHPGKAPKLMIYEVNKRPSGVPDRFSGSKSGNTASLTVSGLQAEDEADYYCSSYAGSNNLVFGGGTKLTVL
B14: COVIC-95 (antibody, V domains shown)
VH: EVQLVESGGGLVQPGGSLRLSCAASGQTFNMGWFRQAPGKEREFVAAIGSGGSTSYADSVKGRFTISADNSKNTAYLQMNSLKPEDTAVYYCWRLGNDYFDYWGQGTLVTVSS
B15: COVIC-321 (antibody)
chain 1: not shown
chain 2: EVQLLESGGGLVQPGGSLRLSCAASGRTFSEYAMGWFRQAPGKGLEFVSTISWSGGSTYYADSVKGRFTISRDNSKNTLYLQMNSLRAEDTAVYYCAAAGLGTVVSEWDYDYDYWGQGTLVTVSSGGGGSGGGGSKRTVAAPSVFIFPPSDEQLKSGTASVVCLLNNFYPREAKVQWKVDNALQSGNSQESVTEQDSKDSTYSLSSTLTLSKADYEKHKVYACEVTHQGLSSPVTKSFNRGEC
B16: COVIC-54 (antibody, V domains shown)
VH: QVQLQESGGGLVQAGGSLRLSCAASGRTFSEYAMGWFRQAPGKEREFVATISWSGGSTYYTDSVKGRFTISRDNAKNTVYLQMNSLKPDDTAVYYCAAAGLGTVVSEWDYDYDYWGQGTQVTVSS

Biological target: SARS-CoV-2 spike RBD (Wuhan-Hu-1) (Severe acute respiratory syndrome …, UniProt P0DTC2)
Experiment: SPR

B1 and B2 are within 1.5-fold of each other in Kd: 106 nM for the first, 139 nM for the second.

Compared with B3, B4 is 20-fold higher in Kd: 0.208 nM for the first, 4.1 nM for the second. The first binds more tightly here.

First: B5
Second: B6
The Kd of the first is 30-fold lower: 6.83 nM for the first, 204 nM for the second.

B7 and B8 are within 1.5-fold of each other in Kd: 184 nM for the first, 139 nM for the second.

Going from B9 to B10, the Kd falls from 140 nM to 2.41 nM (58-fold).

First: B11
Second: B12
The Kd of the first is 2.5-fold lower: 0.177 nM for the first, 0.436 nM for the second.

First: B13
Second: B14
The Kd of the first is 12-fold lower: 2.36 nM for the first, 27.5 nM for the second.

Compared with B15, B16 is 8.1-fold higher in Kd: 30 nM for the first, 244 nM for the second.
